# Data taken from patent US20080194611.
# Molecular target: S1P3 receptor (UniProt Q99500)
# Sequence (Q99500 whole entry): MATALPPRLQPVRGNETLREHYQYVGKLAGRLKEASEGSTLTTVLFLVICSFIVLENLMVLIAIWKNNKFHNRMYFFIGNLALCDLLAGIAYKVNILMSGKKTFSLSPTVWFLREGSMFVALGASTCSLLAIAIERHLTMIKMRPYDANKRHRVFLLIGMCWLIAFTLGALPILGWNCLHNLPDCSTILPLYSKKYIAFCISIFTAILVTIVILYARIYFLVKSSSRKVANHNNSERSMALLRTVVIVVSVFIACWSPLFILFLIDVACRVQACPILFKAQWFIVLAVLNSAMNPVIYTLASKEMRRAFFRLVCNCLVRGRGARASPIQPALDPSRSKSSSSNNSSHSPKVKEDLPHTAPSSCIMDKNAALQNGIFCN
substance,measurement,value
recombinant active Src,in vitro tyrosine phosphorylation of isolated S1P3 receptor (immunoblot),Src tyrosine phosphorylation of the S1P3 receptor
